In paper PMC6947831, “Mitochondrial localization of Dictyostelium discoideum dUTPase mediated by its N-terminus” (BMC Research Notes, 2020):

Experiments:
[1] = substrate: O=c1ccn([C@H]2C[C@H](O)[C@@H](COP(=O)(O)OP(=O)(O)OP(=O)(O)O)O2)c(=O)[nH]1; assay: stopped-flow absorbance, proton release with cresol red; assay type: biochemical, Dictyostelium discoideum; details: enzyme 0.15 µM
From the text: stopped-flow absorbance, proton release with cresol red on core D. discoideum dUTPase

[2] = substrate: O=c1ccn([C@H]2C[C@H](O)[C@@H](COP(=O)(O)OP(=O)(O)OP(=O)(O)O)O2)c(=O)[nH]1; assay: as above; assay type: biochemical, Dictyostelium discoideum; details: enzyme 0.15 µM; remark: listed apart in the source
From the text: stopped-flow absorbance, proton release with cresol red on full-length D. discoideum dUTPase

B1: core D. discoideum dUTPase (Dictyostelium discoideum) (protein)
chain: FKVKKLSDKAIIPQRGSKGAAGYDLSSAHELVVPAHGKALAMTDLQIAIPDGTYGRIAPRSGLAWKNFIDCGAGVIDSDYRGNVGVVLFNHSDVDFKVAVGDRVAQLIFERIVTPEPLEVDEIDETQRGAGGFGSTGVKVQN
notes: core lacking residues 1-37, N-terminal GSHM from cloning, E. coli, His-tag removed, homotrimer
[1]
  Km: 0.5 ± 0.1 µM
  Vmax: 84 µM/min
  kcat: 9.3 s⁻¹
  kcat/Km: 1.86e+07 M⁻¹ s⁻¹

B2: full-length D. discoideum dUTPase (Dictyostelium discoideum) (protein)
chain: MPIEQKYFSLFSNLFKRLTTNNNNNNYLKMAPPNFETFKVKKLSDKAIIPQRGSKGAAGYDLSSAHELVVPAHGKALAMTDLQIAIPDGTYGRIAPRSGLAWKNFIDCGAGVIDSDYRGNVGVVLFNHSDVDFKVAVGDRVAQLIFERIVTPEPLEVDEIDETQRGAGGFGSTGVKVQN
[2]
  Km: 1.0 ± 0.2 µM
  Vmax: 30 µM/min
